Source: PMC3034293 (Biochemistry, 2011)

Molecular target: the molecule itself
Assay: SEC

B1: Wild-type aldolase B (enzyme, human, UniProt P05062 1-364, looked up)
chain: MAHRFPALTQEQKKELSEIAQSIVANGKGILAADESVGTMGNRLQRIKVENTEENRRQFREILFSVDSSINQSIGGVILFHETLYQKDSQGKLFRNILKEKGIVVGIKLDQGGAPLAGTNKETTIQGLDGLSERCAQYKKDGVDFGKWRAVLRIADQCPSSLAIQENANALARYASICQQNGLVPIVEPEVIPDGDHDLEHCQYVTEKVLAAVYKALNDHHVYLEGTLLKPNMVTAGHACTKKYTPEQVAMATVTALHRTVPAAVPGICFLSGGMSEEDATLNLNAINLCPLPKPWKLSFSYGRALQASALAAWGGKAANKEATQEAFMKRAMANCQAAKGQYVHTGSSGAASTQSLFTACYTY
stoichiometry N: 4
